These results are taken from publication PMC4516155 (FASEB journal : official publication of the Federation of …, 2013).

The target of assay [1] is T1, GST-FE65 PTB1 (bacterially expressed) (UniProt O00213 361-514).
T1 sequence (looked up): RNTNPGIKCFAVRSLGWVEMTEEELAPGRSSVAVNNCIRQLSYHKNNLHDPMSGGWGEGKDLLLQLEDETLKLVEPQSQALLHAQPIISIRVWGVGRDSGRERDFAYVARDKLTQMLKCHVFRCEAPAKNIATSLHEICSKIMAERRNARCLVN
As to the kind of experiment: pull-down.

In assay [2] the target is T2, GST-FE65 PTB1 (mammalian, pCIneo-GST-FE65 PTB1) (human, UniProt O00213 361-514).
T2 sequence (looked up): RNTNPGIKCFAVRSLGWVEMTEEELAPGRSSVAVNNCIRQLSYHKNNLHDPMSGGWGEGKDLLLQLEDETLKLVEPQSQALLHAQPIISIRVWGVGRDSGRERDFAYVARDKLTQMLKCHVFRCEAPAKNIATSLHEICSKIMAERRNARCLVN
As to the kind of experiment: pull-down.

B1: Myc/His-tagged wild-type ARF6 (natural protein, UniProt P62330 1-175, looked up)
chain: MGKVLSKIFGNKEMRILMLGLDAAGKTTILYKLKLGQSVTTIPTVGFNVETVTYKNVKFNVWDVGGQDKIRPLWRHYYTGTQGLIFVVDCADRDRIDEARQELHRIINDREMRDAIILIFANKQDLPDAMKPHEIQEKLGLTRIRDRNWYVQPSCATSGDGLYEGLTWLTSNYKS
Consider B1, for which the “percent of input pulled down” value in assay [1] was 12%.

B2: Myc/His-tagged ARF6 T27N (natural protein, UniProt P62330 1-175, looked up)
chain: MGKVLSKIFGNKEMRILMLGLDAAGKNTILYKLKLGQSVTTIPTVGFNVETVTYKNVKFNVWDVGGQDKIRPLWRHYYTGTQGLIFVVDCADRDRIDEARQELHRIINDREMRDAIILIFANKQDLPDAMKPHEIQEKLGLTRIRDRNWYVQPSCATSGDGLYEGLTWLTSNYKS
Consider B2, for which the “percent of input pulled down” value in assay [1] worked out at 27%; in assay [2], 23%.

B3: Myc/His-tagged ARF6 Q67L (natural protein, UniProt P62330 1-175, looked up)
chain: MGKVLSKIFGNKEMRILMLGLDAAGKTTILYKLKLGQSVTTIPTVGFNVETVTYKNVKFNVWDVGGLDKIRPLWRHYYTGTQGLIFVVDCADRDRIDEARQELHRIINDREMRDAIILIFANKQDLPDAMKPHEIQEKLGLTRIRDRNWYVQPSCATSGDGLYEGLTWLTSNYKS
Turning to B3, the “percent of input pulled down” value in assay [1] was 0.7%; in assay [2] it was 2%.
